Experimental data published in patent US20230183346A1 (INSERM INSTITUT NATIONAL DE LA SANTE ET DE LA RECHERCHE …, published 2023).

Biological target: T1, human BTLA (B and T lymphocyte attenuator), BTLA isoform 1 precursor (Homo sapiens) (human, UniProt Q7Z6A9 31-289)
T1 construct: BTLA was presented on CD3+ T cells of PBMC, on COS cells transfected with human BTLA in p3xFlag-myc-CMV25 (this construct may carry tags; not described), and on L-BTLA fibroblasts stably transfected with human BTLA; also called CD272
Assay: flow cytometry on CD3+ T cells among PBMC, 0.01-10 ug/ml
Description: T cells (CD3+) among PBMC were stained for BTLA with the anti BTLA mAbs at various concentration (from 0.01 μg/ml to 10μ,g/ml). […] Then COS transfected with human BTLA were incubated with the anti BTLA mAbs and then with HVEM-Fc before staining with an anti human IgG Fc PE. The percentage of inhibition was determined as 100-maximum of percentage of stained cells. […] The median fluorescence intensity of cells was determined. […] On the other hand, 7.1 and 8.2 antibodies were not able to compete against 4C7 mAb at a high dose (FIG. 3). […] Finally, γδT were obtained after a positive sorting of fresh purified PBMC and stained for Cell Trace Violet to follow the proliferation. Cells were incubated 5 days in IL2/Zometa with the different mAbs prior to analysis by flow cytometry. The addition of antibodies in the culture of the γδT lead to an upregulation of their proliferation. Cells incubated with the HVEM 18.10 mAb disclosed in WO2014184360 is able to proliferate more than cells incubated with the mock control (IgG1) (FIG. 4).

binding result: binds
B1: 629.3 mAb (antibody, V domains shown)
VH: QVQLRESGPGLVAPSQSLSITCTVSGFSLNTYGVSWVRQPPGKGLEWLGVVWGDGNTNYHSVVISRLTINKDNSKSQVFLKLNSLQTDDTATYYCAKCYGSRFDYAMDYWGQGTSVTVSS
VL: DIVMSQSPSSLAVSIGEQVTMSCKSSQSLLSSRTRKNYLAWYQQRPGQSPKLLIYWASTRESGVPDRFTGSGSGTDFTLTISSVQAEDLAVYYCKQSYNLPTFGGGTRLEIK
notes: Mouse monoclonal antibody, detected with anti-mouse IgG
